Assay: yeast display, Sf9 membrane polyspecificity reagent, FACS + sequencing; frameworks hold sequencing errors
Method in brief: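 Galactose induction of a Saccharomyces cerevisiae BJ5465 synthetic nanobody display library ran 36–48 hours. The cells were then stained for 1 hour at 4 °C with 10% biotinylated, detergent-solubilized Sf9 membrane reagent, pulled down on streptavidin microbeads and FACS-sorted into low and high (top ~1%) gates on expression and reagent-binding fluorescence. Labels for polyreactivity follow the gate of origin.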

Row | Sequence | polyreactivity (PSR sort gate)
1 | QVQLQESGGGLVQAGGSLRLSCAASGTISYAPHMGWYRQAPGTDSELVAGITIGGTTYYADSVKGRFTISRDNAKNTVYLQMNSLSPGDTAVYYCAAHSEQYTPFYYWGQGTQVTVSS | low polyreactivity
2 | QVQLQESGGGLVQAGGSLRLSCAASGTITVLYKMGWFRLAPGKEREFVASINYGTSTYYADSVKGRFTVSRDSAKNTVYLQMNSLKPEDTAVYYCAAAYRWQDVYRYWGQGTQVTVSS | low polyreactivity
3 | QVQLQESGGGLVQAGGSLRLSCAASGTITVLYKMVWFRQAPGKEREFVASINYGTSTYYADSVKGRFTVSRDSAKNTVYLQMNSLKPEDTAVYYCAAAYRWQDVYRYWGQGTQVTVSS | low polyreactivity
4 | QVQLQESGGGLVQAGGSLRLSCAASGTNFYKDDMGWYRQAPGKEREFVAGIDRGGTTNCAGSVKGRFTISRDNAKNTVYLQMISLKPEDTAVYYCAAYYPDIYPFIYRGQGTQVTVSS | high polyreactivity
5 | QVQLQESGGGLVQAGGSLRLSCAASGYIFPRIYMGWYRQAPGKEREFDAGISYDAITNYADSVKGRYTISLDNAKNTVYLQMNSLKPEDTAVYYCAVSYYGTPLFTYWGQGTQVTVSS | high polyreactivity
6 | QVQLQESGGGLVQAGGSLRLSCAASGYISFSGYIGRYRQAPGKEREFVDSITPGRSTYYADSVKGRFTISRDNAENTVYLQMNSLKPEDTAVYYCAADDSRTEQHAYWGQGTQVTVSS | high polyreactivity
7 | QVQLQESGGGLVQAGGSLRLSCAASGYISHADEMGWYRQAPGKEHELVASISNGGSTNYADSVKGRFTISRDNAKNTVYQQMNSLKSEYTAVYYCAALTGQVDIHYYWCQGTQVTVSS | low polyreactivity
8 | QVQLQESGGGLVQAGGSLRLSCAASGYISHADEMGWYRQAPGLEHELVASISNGGSTNYADSVKGLFTISRDNAKNTEYLQLNSLKSEDTAVYYCAAWTGQVDIHYYWGQGTQVTVSS | low polyreactivity
9 | QVQLQESGGGLVQAGGSLRLSCAASGYISYFVGMGWYRQAPGKEREFVASIADGSYTYYADSVKGRFTISRDNAKNTVYLQRNSLKPEDTAVYYCAVEDSWTYRFDYWGQGTQVTVSS | high polyreactivity
10 | QVQLQESGGGLVQAGGSLRLSCAASGYISYLDFMGWYRQAPGKERELVAGITTGATTNYADSVKGRFTISRDNAKNIVYHQMNSLKPEDTAVYYCAVIGGDTRGHPYWGQGSQVTVSS | low polyreactivity
11 | QVQLQESGGGLVQAGGSLRLSCAASSNNSTLDDMCWYRQAPGKEREFVASIGSGGITNYADSVKGRFTISRDNAKNTVYLQMNSLKPEDTAVYYCAVLNQAYTDLIYWGQGTQVTVSS | high polyreactivity
12 | QVQLQESGGGLVQAGGSLRLSCAASSNNSTLDVMGWYRQAPGKEREFVASIGSGGITNYADSVKGRFTISRDNAKNTVYLQMNSLKPEDTAVYYCAVLNQAYTDLIYWGQGTLVTVSS | high polyreactivity
13 | QVQLQESGGGLVQAGGSLRLSCASSGYISQSSVMGWYRQAPGKEREFVASISYGATTYYADSVKGRFTISRDNAKNTVYLQTNSPKPEDTAVYYCAVWVKRGFSHRYWGQGTQVTVSS | high polyreactivity
14 | QVQLQESGGGLVQAGGSLRLSCAVSGTIFFPLDMGWYRQAPGREREYVAAIAEGTSTYYADSVKGRFTISRDNAKNTVYPQMYSLKPEDTAVYYCAAYRSTPQQFHYWGQGTQVTVSS | high polyreactivity
15 | QVQLQESGGGLVQAGGSLRLSCSASGTISDSGLMGWYRQAPGKERELVAGISSGGITNDADSVNRRFTISRDNALFTVYLQMNSLKPEDTALYWGEGTQVTVSS | low polyreactivity
16 | QVQLQESGGGLVQAGGSLRLSSAASGTIFRFRYMGWHRQAPGKERELVAGINGGTTTYYADSVIGRFTISRDNAKNTVYLQMNSLKPDDTAVYNCAAGASRLTYYDYWGQGTQVTVSS | low polyreactivity
17 | QVQLQESGGGLVQAGGSLRLTCAASGSISAVAAMGWYRQAPGKEREFAASVNWGTNTNYADSLKGRFTISRDNAINTLYLQMNSLNPEDTAVYYCGVLPDWETRHDYWGHGTQVTVSS | low polyreactivity
18 | QVQLQESGGGLVQAGGSLRPSCAASGNIFVPFKMGWYRMAPGKERELVASINRGSTTNYADSVKGRFTISRDNAKNTVYLQMISLKPEDTAVYYCAAIAYPDIPTYLDYDSDYFYWDQGTQVTVSS | high polyreactivity
19 | QVQLQESGGGLVQAGGSLRQSCAASGYIFPYYSMGWYRQAPGKERGLVACIAAGTTTNYADSVKGRFTISRDNAKNTVYLQMISLKPEDAAVYYCAALNAFNTGHWYWGQGTQVTVSS | low polyreactivity
20 | QVQLQESGGGLVQAGGSLRQSYAASGYIFPSLAMGWYRQAPGKEREFVAAIGRGSTNNYADSVKGRFTISRDNAIYTAYQQMNSLKPEDTAVYYCGAAASPLTRHLYWGQGTQVTVSS | low polyreactivity
21 | QVQLQESGGGLVQAGGSMRLSCAASGYNTIEVTRACFARRRAKNANLLPLLITVVLPIKRIAYNTISRDNAKNTVYLQMNSLKPEDTAVYNCAANTIGTDLYEYWGQGTQATVSS | low polyreactivity
22 | QVQLQESGGGLVQAGGSPRLSCAASDNIFPDSGMCWYRQAPGKERELVATIGFGATRNYADSVKGRFTISRDNAKNTVYLQMNSLQPEDTAVYYCAADPLNYQYFCYWGQGTQVTVSS | low polyreactivity
23 | QVQLQESGGGLVQAGGSQRLSCAASGNISVTGFMGCYRQAPGKERELVASIGIGGTTYYADSVKGRFSISRDNEKNTVYLQMNSLKPEDTAVYYCAARYLYYAYSYWGQGTQVTVSS | low polyreactivity
24 | QVQLQESGGGLVQAGGSQRLSCAASGYIFYFQYMGWYRQAPGKEREFVAAISDGANTNYADSVKGRFTISRDNAKNTEYLQMNSLKPEDTAVYYCAVYADENYYYIYWGQGTQVTVRS | low polyreactivity
25 | QVQLQESGGGLVQAGGSQRLSCSASGYIFYFQYMGWYRQAPGKEREFVAAISDGANTNYADSVKGRFNISRDNAKNTEYLQMNSLKPEDTAVYYCAARSFFKMYYWGQGTQVTVSS | low polyreactivity
26 | QVQLQESGGGLVQAGGSRRLSCAASGTIFTARFMGWYRQATGKERELVSTITDGGNTNHAESVKCRFTISRDNAKNTGSLQMNSLKPEYAAVYYCAAGEVDNDTLLYWGQGSQVTVSS | low polyreactivity
27 | QVQLQESGGGLVQASGSLRLSCAASGNIFPDYVMGWYRLAPGKEREFVANITGGSTTNYADSVKGRFTISRDNAKNTVYLQMNSLKPEDTAVYYCAVNFGTVVLYLYWGQGTQVTVSS | high polyreactivity
28 | QVQLQESGGGLVQEGGSLRLSCAASGNISPPADMGWYRQAPGKERELVASIGTGGTTNYADSVKGRFTISRDNAKNTVYLQMNSLKPDDTAVYYCAAVRYEYNPYDYWGEGTQVTVSS | low polyreactivity
29 | QVQLQESGGGLVQVGGSLRLSCAASGTIFIYGFLGWNRQAPGKERELVASINLGGITNYADSVKGRFTISRDNATNTVYLQMISLKPEDTAVYYCAAYVVTGQNYGYWGQGTQVTVSS | low polyreactivity
30 | QVQLQESGGGLVRAGGSLRLSCAASGYISTSIAMGWYRQAPGKERELVASFGGGAITNYADSVKGFTISRDNGKNSVYLQMNSLKPEDTAVYYCAVYHGDRGYYSYWGQGTQVTVSS | low polyreactivity

Reference: the nanobody polyreactivity screen of Harvey et al. (2022)
